We go through 4 molecules from patent US20120149881A1 (Genentech, published 2012).

Test [1] has as its target T1, human IgE CH3-CH4-M1′/Fc fusion protein (human).
T1 construct: also called M1′ (immobilized)
In words: SPR Biacore A100, M1′ immobilized.

Test [2] concerns the target T2, human IgE with the M1′ sequence (long form of membrane IgE) expressed on transduced BJAB or Daudi cells (human, UniProt P01854 116-546).
T2 construct: Full-length heavy and light chains of the U266 IgE B cell receptor, retrovirally expressed; also called IgE/M1′; IgE-M1′
Put plainly: Scatchard, iodinated antibody on IgE/M1′ cells.

Test [3] has as its target T2, human IgE with the M1′ sequence (long …). Put plainly: Scatchard analysis on cells expressing human IgE/M1′. As to the method:
The BJAB or Daudi cells expressing various forms of IgE with or without M1′ (Human, Rhesus, Cyno) were prepared for binding in cold Binding buffer composed of base media, with 10 mM HEPES pH 7.4, and 2% FBS as well as 40 ug/ml human IgG. Cells are diluted to concentration of 1.7×10⁶ cells/ml, and kept on ice until they are added to the assay. The proteins/antibodies are iodinated with the Iodogen method. Various concentrations of cold protein are prepared in triplicate, using a 1:2 dilution starting with the saturation concentration and ending at a concentration of zero, with a total of 14 concentrations. Hot protein of a single concentration is added to all dilutions compete with the cold protein. Lastly the cells are added to the hot and cold protein mixture, 250,000 cells per sample were used. Assay is kept at 4° C. for 4 hours, shaking. Each sample is then collected and filtered on membrane, washed at least 3 times with binding buffer, allowed to dry and then counted for 1 minute using Perkin Elmer Wizard 1470 Auto Gamma Counter.

The target in another test is T3, M1′ peptide 4 (human).
T3 peptide: SAQSQRAPDRVLCHS
Put plainly: ELISA on coated antigen, relative OD450/650. As for the experimental part: (§1) 15 peptides were generated spanning the sequence surrounding and including human M1′ (Clifford Quan) (FIG. 5A). Peptides were resuspended in either dH20 or 50% DMSO. […] 0.05% Tween-20, 10 ppm Proclin., 0.2% BgG, 0.25% Chaps, 5 mM EDTA, 0.35M NaCl]. […] Plates were then incubated for 2 hours at room temperature. Murine antibody plates were washed 3 times and then anti-mouse IgG1-Biotin (BD Biosciences (A85-1) #553441) was added (1:10,000, 100 μl per well) and incubated for 1 hour at RT. Following 3 washes, SA-HRP (BD Biosciences #554066) was added (1:20,000, 100 μl per well) and incubated for 1 hour. Human IgG1 antibody plates were washed as before and anti-hulgG.Fc-HRP (Jackson ImmunoResearch (#109-036-098)) was added (1:10,000, 100 μl per well) and incubated for 1 hour at RT. Once secondary incubations were complete, plates were washed 6 times and TMB substrate (BD OptEIA #555214) was added (100 μl per well). The substrate-HRP reaction was stopped with 1M H3PO4 after ˜4 minutes. Plates were then read at 450/650. Data was represented as relative OD (OD₄₅₀/CD650).

For a further test, the target named is T4, M1′ peptide 5 (human).
T4 peptide: RAPDRVLCHSGQQQG
In words: ELISA on coated antigen, relative OD450/650. As for the experimental part:
as §1

The target of test [4] is T2, human IgE with the M1′ sequence (long …). In words: competitive ECL binding on BJAB-IgE/M1′ cells vs biotinylated 26A11 or 47H4, 1st IC50 column.
A further test has as its target T5, M1' peptide 1.
T5 peptide: ASPSQTVQRAVSVNP
Put plainly: ELISA on coated antigen, relative OD450/650. As for the experimental part:
as §1

The next test concerns the target T6, M1' peptide 14.
T6 construct: see f1
T6 peptide: VCVEEAEGEAPWTWT
Put plainly: ELISA on coated antigen, relative OD450/650. As for the experimental part: as §1

The next test addresses T7, M1' peptide 15.
T7 construct: see f1
T7 peptide: AEGEAPWTWTGLCIF
Put plainly: ELISA on coated antigen, relative OD450/650. As to the method: as §1

The next test addresses T8, M1' peptide 2.
T8 construct: see f1
T8 peptide: TVQRAVSVNPGLAGG
Put plainly: ELISA on coated antigen, relative OD450/650. As to the method:
as §1

A further test addresses T9, M1' peptide 3.
T9 construct: see f1
T9 peptide: GLAGGSAQSQRAPDR
In words: ELISA on coated antigen, relative OD450/650. As for the experimental part: as §1

The target of the next test is T10, M1' peptide 6.
T10 construct: see f1
T10 peptide: VLCHSGQQQGLPRAA
Put plainly: ELISA on coated antigen, relative OD450/650. As for the experimental part: as §1

For a further test, the target named is T11, M1' peptide 9.
T11 construct: see f1
T11 peptide: GGSVPHPRCHCGAGR
In words: ELISA on coated antigen, relative OD450/650. As for the experimental part: as §1

A further test concerns the target T12, M1' peptide 10.
T12 construct: see f1
T12 peptide: HPRCHCGAGRADWPG
Put plainly: ELISA on coated antigen, relative OD450/650. As for the experimental part: as §1

For another test, the target named is T13, M1' peptide 11.
T13 construct: see f1
T13 peptide: CGAGRADWPGPPELD
Put plainly: ELISA on coated antigen, relative OD450/650. As for the experimental part: as §1

Another test addresses T14, M1' peptide 12.
T14 construct: see f1
T14 peptide: ADWPGPPELDVCVEE
Put plainly: ELISA on coated antigen, relative OD450/650. As to the method:
as §1

In the next test the target is T15, M1' peptide 13.
T15 construct: see f1
T15 peptide: PPELDVCVEEAEGEA
In words: ELISA on coated antigen, relative OD450/650. As for the experimental part: as §1

The target in a further test is T16, M1′ peptide 8 (human).
T16 peptide: PRAAGGSVPHPRCH
Put plainly: ELISA on coated antigen, relative OD450/650. As for the experimental part: as §1

The target of a further test is T17, M1′ peptide 7 (human).
T17 peptide: GQQQGLPRAAGGSVP
In words: ELISA on coated antigen, relative OD450/650. As to the method: as §1

Test [5] deals with T1, human IgE CH3-CH4-M1′/Fc fusion protein. Put plainly: SPR Biacore 2000, M1′-Fc immobilized.
Test [6] concerns the target T18, cyno IgE/M1′ expressed on transduced Daudi cells (human IgE/primate M1′ cassette, cynomolgus) (cynomolgus monkey).
T18 construct: The construct is described as a 'human IgE/primate M1′ cassette'; also called Cyno M1′
T18 chain: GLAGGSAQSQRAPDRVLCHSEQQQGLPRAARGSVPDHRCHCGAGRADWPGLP
In words: Scatchard analysis on cells expressing cyno IgE/M1′.

In test [7] the target is T19, rhesus IgE/M1′ expressed on transduced Daudi cells (human IgE/primate M1′ cassette, rhesus) (rhesus monkey).
T19 construct: The construct is described as a 'human IgE/primate M1′ cassette'; also called Rhesus M1′
T19 chain: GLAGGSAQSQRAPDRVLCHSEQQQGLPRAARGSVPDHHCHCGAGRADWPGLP
In words: Scatchard analysis on cells expressing rhesus IgE/M1′.

In test [8] the target is T2, human IgE with the M1′ sequence (long …). In words: competitive ECL binding on BJAB-IgE/M1′ cells vs biotinylated 26A11 or 47H4, 2nd IC50 column.
Test [9] deals with T1, human IgE CH3-CH4-M1′/Fc fusion protein. Put plainly: SPR Biacore 2000, IgG immobilized, M1′-Fc analyte.

T1 sequence (chain, as listed by the source limits assumed): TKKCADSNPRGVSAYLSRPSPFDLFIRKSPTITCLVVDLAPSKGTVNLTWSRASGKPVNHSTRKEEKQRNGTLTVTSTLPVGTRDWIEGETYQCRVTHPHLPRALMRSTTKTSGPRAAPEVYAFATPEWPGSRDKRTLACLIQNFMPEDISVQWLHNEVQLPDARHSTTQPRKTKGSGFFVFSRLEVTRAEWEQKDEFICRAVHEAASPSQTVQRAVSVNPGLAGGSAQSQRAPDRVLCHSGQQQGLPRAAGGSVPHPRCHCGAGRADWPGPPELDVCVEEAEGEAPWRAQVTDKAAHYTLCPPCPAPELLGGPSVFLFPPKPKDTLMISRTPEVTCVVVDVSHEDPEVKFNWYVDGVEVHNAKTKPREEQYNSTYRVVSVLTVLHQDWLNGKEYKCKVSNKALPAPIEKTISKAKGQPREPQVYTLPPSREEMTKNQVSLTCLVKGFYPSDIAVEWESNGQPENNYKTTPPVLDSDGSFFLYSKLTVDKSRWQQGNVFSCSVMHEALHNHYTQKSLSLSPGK
T2 sequence (P01854 116-546 I515L limits assumed): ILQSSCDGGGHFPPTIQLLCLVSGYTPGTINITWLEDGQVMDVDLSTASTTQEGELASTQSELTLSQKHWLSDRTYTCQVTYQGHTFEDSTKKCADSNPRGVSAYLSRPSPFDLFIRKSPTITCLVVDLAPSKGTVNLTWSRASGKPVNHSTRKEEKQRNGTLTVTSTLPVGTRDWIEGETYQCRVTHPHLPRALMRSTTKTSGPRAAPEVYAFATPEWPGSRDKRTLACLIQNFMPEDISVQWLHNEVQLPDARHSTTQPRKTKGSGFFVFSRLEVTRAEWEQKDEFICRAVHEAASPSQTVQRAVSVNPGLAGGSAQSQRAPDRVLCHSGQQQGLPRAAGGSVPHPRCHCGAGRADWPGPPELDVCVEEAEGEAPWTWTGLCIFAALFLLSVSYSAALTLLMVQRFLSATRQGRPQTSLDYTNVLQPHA

B1: murine anti-IgE/M1′ antibody 7A6 (antibody, V domains shown)
VH: QVQLQQSGAELVRPGASVTLSCKASGYTFIDYEMHWVKQTPVHGLEWIGAIDPETGTTAYNQKFKGKATLTAAKSSSTAYMELRSLTSEDSAVYYCTRLRPHYDYDNAMDSWGQGTTLTVSS
VL: DIVMSQSPSSLTVSVGEKVTLSCKSSQTLLYSTNQKNYLAWYQQKPGQSPKLLIYWASTRESGVPDRFTGSGSGTDFTLTISSVKAEDLAVYYCQQYYSYPYTFGGGTKVEIKR
notes: mIgG1 hybridoma antibody; also called mu7A6; 7A6 mIgG1
As for B1, the equilibrium dissociation constant (Kd) in test [1] is 4.5 nM; in [2], 0.6 nM; in test [3], 0.64 nM. Further, the binding result with M1′ peptide 4 and with M1′ peptide 5 was “binds” throughout. Further, the IC50 in [4] was 52 nM.

B2: humanized anti-IgE/M1′ antibody 7A6.v1 (antibody, V domains shown)
VH: EVQLVESGGGLVQPGGSLRLSCAASGYTFIDYEMHWVRQAPGKGLEWVGAIDPETGTTAYNQKFKGRFTISADTSKNTAYLQMNSLRAEDTAVYYCTRLRPHYDYDNAMDSWGQGTLVTVSS
VL: DIQMTQSPSSLSASVGDRVTITCKSSQTLLYSTNQKNYLAWYQQKPGKAPKLLIYWASTRESGVPSRFSGSGSGTDFTLTISSLQPEDFATYYCQQYYSYPYTFGQGTKVEIKR
notes: direct CDR graft, huIgG1; also called 7A6v1 huIgG1; 7A67v1 [sic]
As to B2, binding in test [1] was put at a Kd of 15 nM. In addition, the binding result in the test with M1' peptide 1, in the test with M1' peptide 14, in the test with M1' peptide 15, with M1' peptide 2, in the test with M1' peptide 3 and in the test with M1' peptide 6 was “no binding” in each case. In addition, the binding result with M1' peptide 9, with M1' peptide 10, with M1' peptide 11, with M1' peptide 12, in the test with M1' peptide 13 and with M1′ peptide 8 was “no binding” in each case. In addition, the binding result with M1′ peptide 4 is given as “binds”; with M1′ peptide 5, “binds”; with M1′ peptide 7, “no binding”. In test [4], this molecule returned a 50% inhibitory concentration (IC50) of 39 nM.

B3: humanized anti-IgE/M1′ antibody 47H4.v5 (antibody, V domains shown)
VH: EVQLVESGGGLVQPGGSLRLSCAASGFTFSDYGIAWVRQAPGKGLEWVAFISDLAYTIYYADTVTGRFTISRDNSKNTLYLQMNSLRAEDTAVYYCARDNWDAMDYWGQGTLVTVSS
VL: DIQMTQSPSSLSASVGDRVTITCRSSQSLVHNNANTYLHWYQQKPGKAPKLLIYKVSNRFSGVPSRFSGSGSGTDFTLTISSLQPEDFATYYCSQNTLVPWTFGQGTKVEIKR
notes: huIgG1; also called 47H4v5 huIgG1; 47H5 v.5
For B3, the equilibrium dissociation constant (Kd) in test [5] was found to be 23 nM; in test [6] it was 2.5 nM; in [3] it was 1.5 nM; in [7] it was 1.3 nM. The binding result with M1' peptide 1, in the test with M1' peptide 14, with M1' peptide 15, with M1' peptide 2, with M1' peptide 3 and with M1' peptide 6 was “no binding” in each case. For the same molecule, the binding result with M1' peptide 9, in the test with M1' peptide 10, with M1' peptide 11, in the test with M1' peptide 12, in the test with M1' peptide 13 and with M1′ peptide 8 was “no binding” each time. Besides, the values for the binding result with M1′ peptide 4, with M1′ peptide 5 and with M1′ peptide 7 were “binds”, “no binding” and “no binding”, respectively. The concentration for half-maximal inhibition (IC50) in [8] is 60 nM.

B4: humanized anti-IgE/M1′ antibody 26A11.v6 (antibody, V domains shown)
VH: EVQLVESGGGLVQPGGSLRLSCAASGYTFTDYYIMWVRQAPGKGLEWVGDINPNNYDTSYNQKFKGRFTISADTSKNTAYLQMNSLRAEDTAVYYCASKAYWGQGTLVTVSS
VL: DIQMTQSPSSLSASVGDRVTITCRSSQDISNYLNWYQQKPGKAPKLLIYSTSRLHSGVPSRFSGSGSGTDFTLTISSLQPEDFATYYCQQGHTLPWTFGQGTKVEIKR
notes: huIgG1; also called 26A11v6 huIgG1
On to B4, for which the Kd stood at 2.6 nM in test [1], 1.85 nM in test [3] and 8.3 nM in [9]. The binding result in the test with M1' peptide 1, in the test with M1' peptide 14, in the test with M1' peptide 15, with M1' peptide 2, with M1' peptide 3 and in the test with M1' peptide 6 was “no binding” in each case. The binding result is listed as “no binding” with M1' peptide 9; “no binding” with M1' peptide 10; “no binding” with M1' peptide 11; “no binding” with M1' peptide 12; “no binding” with M1' peptide 13; “binds” in the test with M1′ peptide 8. The binding result is “no binding” with M1′ peptide 4, “no binding” with M1′ peptide 5 and “binds” with M1′ peptide 7. In addition, the half-maximal inhibitory concentration (IC50) in [4] stood at 11 nM; in test [8], 23 nM.
